Measurements: patent publication US20230106247A1 (L AND L BIO CO LTD NINGBO CHINA, published 2023)
Residue numbers refer to the chain shown, from its start. Read-outs that look alike come from different tables or passages of the source.

Key:
Assay in all cases: ELISA
[1] = molecular target: T1, Cyno Sirpα L937 (cynomolgus)
T1 construct: also called RB3-5; Cyno Sirpα polymorphism 4 (L937)
T1 chain: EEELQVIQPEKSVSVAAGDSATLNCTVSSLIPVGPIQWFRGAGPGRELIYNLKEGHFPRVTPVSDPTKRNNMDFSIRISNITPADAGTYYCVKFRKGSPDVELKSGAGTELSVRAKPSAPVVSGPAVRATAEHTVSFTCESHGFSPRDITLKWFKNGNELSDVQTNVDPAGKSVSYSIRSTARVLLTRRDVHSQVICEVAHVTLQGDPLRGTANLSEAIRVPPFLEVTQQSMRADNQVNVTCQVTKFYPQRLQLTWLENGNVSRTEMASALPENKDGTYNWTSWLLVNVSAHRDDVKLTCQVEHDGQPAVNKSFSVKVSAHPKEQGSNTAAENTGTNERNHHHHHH
Description: (§1) Different antigens (recombinant proteins) such as the human Sirpα-V1-hFc, Sirpα-V1-his, Sirpα-V2-his, Sirpβ-his, Sirpγ-his, monkey Sirpα-his (cynoSirpα-his) or NOD-mSirpα-his described in Example 1 were diluted with a PBS buffer at pH7.4 to concentrations of 1 μg/mL, 2 μg/mL or 5 μg/mL, added into a 96-well ELISA plate (Corning, CLS3590-100EA) at a volume of 50 μL/well, and placed in an incubator at 37° C. for 2 hours. After the liquid was discarded, the wells were added with a blocking solution of 5% skimmed milk (skimmed milk powder available from Bright Dairy) diluted with PBS at 230 μL/well, and incubated in an incubator at 37° C. for 3 hours, or placed overnight at 4° C. (for 16-18 hours) for blocking. The blocking solution was discarded, and the plate was washed with a PBST buffer (pH7.4 PBS containing 0.05% Tween-20) for 5 times, then added with 50 μL/well of the supernatant (containing a detection antibody) or 10 μg/mL of the starting 5-fold gradient dilution of the antibody to be tested, and incubated at 37° C. for 1 hour. […] The plated was washed with PBST for 5 times, then added with 50 μL/well of TMB chromogenic substrate (KPL, Cat #: 52-00-03), incubated at room temperature for 10-15 min, added with 50 μL/well of 1 M H₂SO₄ to stop the reaction, and read by a […] Go microplate reader (ThermoFisher, Cat #: 51119200) for the absorbance value at 450 nm, and then a clone with high binding activity was selected or a EC₅₀ value was calculated according to the OD value.

[2] = molecular target: T2, Cyno Sirpα L933 (cynomolgus)
T2 construct: extracellular domain; also called Cyno Sirpα polymorphism 2 (L933)
Description: as §1

[3] = molecular target: T3, Cyno Sirpα L936 (cynomolgus)
T3 construct: also called RB3-3; Cyno Sirpα polymorphism 3 (L936)
T3 chain: T1 chain with S28T, N51H, L52Q, P62S, D65E, P66S, R77H, L103V, V163F, L185V
Description: as §1

[4] = molecular target: T4, human Sirpα-V1-his (human, UniProt P78324 31-373)
T4 construct: range 31-373; Bought (Sino Biological 11612-H08H) or expressed in-house; also called hSirpα-V1; hSirpα-V1-his
Description: as §1

[5] = molecular target: T5, Cyno Sirpα L938 (cynomolgus, limits assumed)
T5 construct: also called RB6-1; Cyno Sirpα polymorphism 5 (L938)
T5 chain: T1 chain with D19E, V27A, S28T, A42V, N51H, L52Q, V163F, L185V, T245M
Description: as §1

[6] = molecular target: T4, human Sirpα-V1-his; remark: listed apart in the source
Description: The self-expressed human PD-1, Sirpα and the like antigens of the present disclosure were diluted with a PBS buffer at pH7.4 to a concentration of 2 μg/mL according to different assays, and then added into a 96-well ELISA plate (Corning, CLS3590-100EA) at a volume of 50 μL/well, and placed in an incubator at 37° C. for 2 hours. After the liquid was discarded, the wells were added with a blocking solution of 5% skimmed milk (Sangon Biotech (Shanghai) Co., Ltd., A600669-0250) diluted with PBS at 200 μL/well, and incubated in an incubator at 37° C. for 3 hours, or placed overnight at 4° C. (for 16-18 hours) for blocking. The blocking solution was discarded, and the plate was washed with a PBST buffer (pH7.4 PBS containing 0.05% tween-20) for 5 times, then added with 50 μL/well of 5-fold serial dilution of the antibody to be tested in 1% BSA, and incubated at 37° C. for 1 hour. […] The plated was washed with PBST for 5 times, then added with 50 μL/well of TMB chromogenic substrate (KPL, 52-00-03), incubated at room temperature for 5-10 min, added with 50 μL/well of 1 M H₂SO₄ to stop the reaction, and read by a […] Go microplate reader (ThermoFisher, 51119200) for the absorbance value at 450 nm, and then EC₅₀ was calculated according to the OD value.
The aforementioned bispecific antibodies were cloned, expressed and purified according to the cloning, expression and purification methods of Example 1 of the present disclosure.

- EC50 [1]: 0.121 nM
- EC50 [2]: 0.159 nM
- EC50 [3]: 0.143 nM
- EC50 [4]: 0.065 nM
- EC50 [6]: 0.077 nM
B1: humanized antibody mab14-h16 (antibody, human IgG4 S228P, kappa, V domains shown)
VH: QVQLVQSGAEVKKPGASVKVSCKASGYNFNIYWINWVRQAPGQGLEWIGNIYPSSISTNYNEKFKTRATLTVDKSTSTVYMELSSLRSEDTAVYYCARSEGTYYGGRYEGDWFGYWGQGTLVTVSS
VL: DIQMTQSPSSLSASVGDRVTITCRASQDIRNYLNWYQQKPGKAPKLLIYFTSTLHSGVPSRFSGSGSGTDFTLTISSLQPEDFATYYCQQGNTLPWTFGGGTKVEIKR
notes: hIgG4, κ
- binding result [5]: no binding (tested: the binding signal was not detected)
